Bridge positions count the residues as written; N and C are the ends. Ends that are not written are not given here. Peptide text beside a SMILES is read from it. * marks the point of attachment. 5FAM = O=C1OC2(c3ccc(O)cc3Oc3cc(O)ccc32)c2ccc(C(=O)*)cc21; Vert = not defined here; Ahx = NCCCCCC(=O)O

For data set [1] the following is noted: mouse, in vivo.
Data set [2] addresses T1, human recombinant CD206 (Homo sapiens, UniProt P22897).
T1 construct: purchased R&D systems 2534-MR-050/CF
T1 sequence (P22897 19-1456): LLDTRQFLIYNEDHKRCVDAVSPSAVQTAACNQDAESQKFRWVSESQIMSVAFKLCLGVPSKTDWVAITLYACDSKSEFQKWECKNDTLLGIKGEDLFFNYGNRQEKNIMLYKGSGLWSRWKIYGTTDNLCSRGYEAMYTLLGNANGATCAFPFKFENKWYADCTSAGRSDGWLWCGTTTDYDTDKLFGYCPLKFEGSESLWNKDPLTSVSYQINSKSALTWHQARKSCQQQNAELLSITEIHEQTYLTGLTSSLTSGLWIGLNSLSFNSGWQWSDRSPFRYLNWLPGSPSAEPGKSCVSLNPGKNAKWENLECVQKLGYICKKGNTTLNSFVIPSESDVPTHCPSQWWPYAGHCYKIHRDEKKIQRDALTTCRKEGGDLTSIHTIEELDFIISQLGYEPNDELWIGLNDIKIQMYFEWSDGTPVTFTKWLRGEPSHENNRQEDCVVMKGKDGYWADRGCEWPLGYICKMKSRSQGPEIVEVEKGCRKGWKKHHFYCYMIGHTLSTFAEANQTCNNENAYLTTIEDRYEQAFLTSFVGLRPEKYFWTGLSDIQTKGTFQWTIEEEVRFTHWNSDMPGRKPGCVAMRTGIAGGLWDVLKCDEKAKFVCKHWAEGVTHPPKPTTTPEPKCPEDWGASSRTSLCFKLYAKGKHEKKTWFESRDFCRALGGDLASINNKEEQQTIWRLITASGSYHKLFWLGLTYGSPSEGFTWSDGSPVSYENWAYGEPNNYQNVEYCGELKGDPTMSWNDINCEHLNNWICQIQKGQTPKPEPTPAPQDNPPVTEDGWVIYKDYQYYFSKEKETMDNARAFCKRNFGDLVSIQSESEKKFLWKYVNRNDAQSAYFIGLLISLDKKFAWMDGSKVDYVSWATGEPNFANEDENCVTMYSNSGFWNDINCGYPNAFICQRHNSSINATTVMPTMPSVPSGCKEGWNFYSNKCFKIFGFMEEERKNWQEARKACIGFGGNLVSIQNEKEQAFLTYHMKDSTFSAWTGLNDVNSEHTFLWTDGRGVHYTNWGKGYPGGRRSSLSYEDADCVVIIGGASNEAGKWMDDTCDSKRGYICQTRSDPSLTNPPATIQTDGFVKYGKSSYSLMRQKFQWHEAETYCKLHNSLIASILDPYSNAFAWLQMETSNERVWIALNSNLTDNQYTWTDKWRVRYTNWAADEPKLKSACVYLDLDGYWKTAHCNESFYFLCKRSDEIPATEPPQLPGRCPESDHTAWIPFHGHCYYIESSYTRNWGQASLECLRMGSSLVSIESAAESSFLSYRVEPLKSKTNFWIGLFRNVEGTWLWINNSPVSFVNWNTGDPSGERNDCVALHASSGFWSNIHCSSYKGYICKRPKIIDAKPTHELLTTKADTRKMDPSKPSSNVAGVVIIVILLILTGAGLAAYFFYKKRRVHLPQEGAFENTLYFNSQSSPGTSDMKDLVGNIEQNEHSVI
As to the kind of experiment: Quartz Crystal Microbalance (QCM) binding to PAH/CD206 multilayer. The conditions noted are these: peptides 10µM in PBS, curve fitting, read-out: constant of association. The source says: To confirm the capacity of MACTIDE to bind to CD206, we evaluated binding to recombinant CD206 included in a viscoelastic film, using Quartz Crystal Microbalance (QCM). QCM is a powerful technique used to study label-free ligand-receptor interactions in solution (Baltus, R. E. et al., Langmuir 2007, 23 (7), 3880-3885), wherein peptide binding and dissociation is sensed through a mass increase or decrease on a resonating crystal surface functionalized with the receptor. Here, we evaluated the mass changes of MACTIDE when binding and dissociating in solution to CD206 immobilized on a viscoelastic film, deposited on a gold-modified quartz crystal resonating at 5 MHz. […]
The Quartz Crystal Microbalance (QCM) used was QCM200 system from Stanford Research Systems (Sunnyvale, CA, USA). […] Then, a baseline with 500µL of mQ at pH 8 was recorded, the measurement was paused and then 5µL of a 1mg/mL solution in PBS were added (human recombinant CD206, Cat # 2534-MR-050/CF from R&D systems, reconstituted with 50µL of mQ); final concentration of CD206 in the cell: 0.01 mg/mL. […] For peptides, 500µL of PBS were placed in the cell and the baseline was recorded, the measurement was then paused and 50µL of a 100µM solution of peptides in PBS were gently deposited on the cell and the measurement was resumed. […]

Data set [3] relates to (LPS + IFNy)-stimulated macrophages. As to the kind of experiment: In vitro photodynamic therapy, MTT cell viability, (LPS + IFNγ)-stimulated macrophages. It counts as cell-based, human. The conditions noted are these: with and without irradiation, 30µM.
The test system of data set [4] is IL4-stimulated macrophages. As to the kind of experiment: In vitro photodynamic therapy, MTT cell viability, IL4-stimulated macrophages. It counts as cell-based, human. The conditions noted are these: with and without irradiation, 30µM.
In data set [5] the target is T2, Bovine Serum Albumin (BSA, Cat # A7906, Sigma-Aldrich) (bovine, UniProt P02769 25-607).
T2 construct: Control protein deposited on PAH as the control multilayer; also called PAH/BSA control multilayer
As to the kind of experiment: QCM, peptide in PBS on PAH/BSA control multilayer.

Data set [6] has as its target T3, human recombinant CD206 (Cat # 2534-MR-050/CF from R&D systems) (human, UniProt P22897 19-1383, limits assumed).
T3 construct: Bought recombinant protein; also called Macrophage Mannose Receptor 1; PAH/CD206 multilayer
T3 sequence: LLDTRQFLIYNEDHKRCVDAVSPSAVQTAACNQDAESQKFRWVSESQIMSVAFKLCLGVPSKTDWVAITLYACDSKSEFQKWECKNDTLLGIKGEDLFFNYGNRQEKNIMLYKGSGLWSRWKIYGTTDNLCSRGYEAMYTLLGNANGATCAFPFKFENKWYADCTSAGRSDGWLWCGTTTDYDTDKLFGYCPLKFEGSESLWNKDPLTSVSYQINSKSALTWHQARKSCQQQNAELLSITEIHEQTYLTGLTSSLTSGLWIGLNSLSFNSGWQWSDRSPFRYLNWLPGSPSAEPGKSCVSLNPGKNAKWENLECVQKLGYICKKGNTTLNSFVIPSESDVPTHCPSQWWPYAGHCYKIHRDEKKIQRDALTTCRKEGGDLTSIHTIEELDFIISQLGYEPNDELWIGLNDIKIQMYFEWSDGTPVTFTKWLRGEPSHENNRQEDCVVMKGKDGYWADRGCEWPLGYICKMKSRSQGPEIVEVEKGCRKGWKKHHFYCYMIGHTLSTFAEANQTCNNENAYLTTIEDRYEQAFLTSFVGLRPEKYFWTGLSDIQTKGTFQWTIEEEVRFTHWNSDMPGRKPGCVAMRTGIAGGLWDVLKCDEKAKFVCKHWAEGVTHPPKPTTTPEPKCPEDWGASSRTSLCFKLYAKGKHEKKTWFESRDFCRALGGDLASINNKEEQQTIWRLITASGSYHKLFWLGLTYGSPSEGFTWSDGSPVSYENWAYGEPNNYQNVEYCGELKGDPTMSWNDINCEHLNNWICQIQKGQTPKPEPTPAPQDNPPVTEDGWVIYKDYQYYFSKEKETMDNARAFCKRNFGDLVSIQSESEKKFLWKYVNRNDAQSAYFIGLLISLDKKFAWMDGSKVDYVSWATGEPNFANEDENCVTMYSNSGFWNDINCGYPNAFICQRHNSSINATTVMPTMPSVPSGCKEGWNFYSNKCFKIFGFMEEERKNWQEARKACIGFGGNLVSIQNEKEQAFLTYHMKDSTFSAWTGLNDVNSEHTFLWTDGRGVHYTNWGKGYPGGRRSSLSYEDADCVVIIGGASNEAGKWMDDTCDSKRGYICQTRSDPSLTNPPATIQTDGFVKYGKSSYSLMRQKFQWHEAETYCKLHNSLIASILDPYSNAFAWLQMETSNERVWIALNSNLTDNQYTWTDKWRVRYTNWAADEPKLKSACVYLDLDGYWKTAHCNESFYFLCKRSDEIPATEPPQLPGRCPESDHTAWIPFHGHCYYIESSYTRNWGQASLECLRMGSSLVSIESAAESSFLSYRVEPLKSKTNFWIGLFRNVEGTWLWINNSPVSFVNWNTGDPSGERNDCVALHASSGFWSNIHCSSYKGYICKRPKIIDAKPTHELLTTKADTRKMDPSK
As to the kind of experiment: QCM (summary of example 3, Fig. 3).

The target in data set [7] is T3, human recombinant CD206 (Cat # …). As to the kind of experiment: QCM, PAH/CD206 multilayer, curves fitted with TraceDrawer.

T2 sequence (P02769 25-607 limits assumed): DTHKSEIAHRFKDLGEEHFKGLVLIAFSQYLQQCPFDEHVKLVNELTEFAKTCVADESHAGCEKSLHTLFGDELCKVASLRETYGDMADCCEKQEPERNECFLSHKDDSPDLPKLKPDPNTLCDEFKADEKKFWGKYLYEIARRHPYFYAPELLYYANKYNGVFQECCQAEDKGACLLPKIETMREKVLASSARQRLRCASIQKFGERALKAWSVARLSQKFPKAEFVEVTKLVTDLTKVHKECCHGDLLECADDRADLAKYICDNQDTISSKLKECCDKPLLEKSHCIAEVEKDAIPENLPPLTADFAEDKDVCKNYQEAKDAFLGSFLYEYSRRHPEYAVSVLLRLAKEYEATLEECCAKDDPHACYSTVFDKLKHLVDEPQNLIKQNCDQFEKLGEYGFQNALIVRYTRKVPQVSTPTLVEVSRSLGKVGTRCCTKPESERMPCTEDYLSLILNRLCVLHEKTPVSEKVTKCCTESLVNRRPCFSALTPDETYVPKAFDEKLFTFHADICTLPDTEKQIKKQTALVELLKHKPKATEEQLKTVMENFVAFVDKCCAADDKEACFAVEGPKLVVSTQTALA

For `CC[C@H](C)[C@@H]1NC(=O)[C@@H]2CCCN2C(=O)[C@@H]2CCCN2C(=O)[C@H]([C@@H](C)CC)NC(=O)[C@H](CO)NC(=O)[C@H](CCCCN)NC(=O)[C@H]([C@@H](C)O)NC(=O)[C@@H](NC(=O)CNC(=O)CCCCCNC(=O)c2ccc3c(c2)C(=O)OC32c3ccc(O)cc3Oc3cc(O)ccc32)CSSC[C@@H](C(=O)N[C@@H](CO)C(=O)N2CCC[C@H]2C(=O)NCC(=O)N[C@@H](C)C(=O)N[C@@H](CCCCN)C(=O)O)NC1=O` [FAM-MACTIDE] ({5FAM-Ahx}-GCTKSIPPICSPGAK-OH; disulfide 2-10), the blood half-life result in data set [1] is recorded as “the same as those obtained previously for FAM-mUNO”.
Turning to `CC[C@H](C)[C@@H]1NC(=O)[C@@H]2CCCN2C(=O)[C@@H]2CCCN2C(=O)[C@H]([C@@H](C)CC)NC(=O)[C@H](CO)NC(=O)[C@H](CCCCN)NC(=O)[C@H]([C@@H](C)O)NC(=O)[C@@H](NC(=O)CN)CSSC[C@@H](C(=O)N[C@@H](CO)C(=O)N2CCC[C@H]2C(=O)NCC(=O)N[C@@H](C)C(=O)N[C@@H](CCCCN)C(=O)O)NC1=O` [MACTIDE, GCTKSIPPICSPGAK] (H-GCTKSIPPICSPGAK-OH; disulfide 2-10), the kon at 10 µM in data set [2] came out at 650 M⁻¹ s⁻¹.
Consider CSPGAK [mUNO, CSPGAK], for which, in data set [2], the kon at 10 µM is 1400 M⁻¹ s⁻¹.
On to “Vert-CtrlPep: control conjugate, Vert-Ahx- on AKPCGS (SEQ ID NO: 8) ({Vert-Ahx}-AKPCGS; reading uncertain)”, for which the toxicity entry in data set [3] and in data set [4] was “no toxicity” in each case.

B1: MACTIDE (peptide)
peptide: GCTKSIPPICSPGAK
modifications: disulfide 2-10
notes: Monocyclic through the C2-C10 disulfide; also called the peptide of the invention
The term Kd denotes the concentration at which binding is half-saturated. One may read the koff as a measure of how fast the partners let go of each other. For B1, the binding result in data set [5] is “no binding (tested: 10µM)”. The “fold higher affinity (against mUNO)” value in data set [6] came to 15 fold. Also, in data set [7], the Kd was found to be 0.38 µM, the “fold slower dissociation constant against mUNO” value was 30 fold, the koff was 0.00025 s⁻¹ and the kon was determined as 650 M⁻¹ s⁻¹.
For the molecule CSPGAK (also called mUNO peptide) [mUNO], the binding result in data set [5] was “no binding (tested: 10µM)”. In addition, in data set [7], the dissociation constant Kd worked out at 6 µM, the koff is 0.0087 s⁻¹ and the kon is 1400 M⁻¹ s⁻¹.

For the origin of these results see patent EP4624485A1, “PEPTIDE THAT TARGETS MACROPHAGES AND USES THEREOF” (Consejo Superior De Investigaciones Científicas, priority 2024, dated 2025).
